The target of data set [1] is T1, dPPR10 (synthetic construct (designed consensus …)).
T1 chain: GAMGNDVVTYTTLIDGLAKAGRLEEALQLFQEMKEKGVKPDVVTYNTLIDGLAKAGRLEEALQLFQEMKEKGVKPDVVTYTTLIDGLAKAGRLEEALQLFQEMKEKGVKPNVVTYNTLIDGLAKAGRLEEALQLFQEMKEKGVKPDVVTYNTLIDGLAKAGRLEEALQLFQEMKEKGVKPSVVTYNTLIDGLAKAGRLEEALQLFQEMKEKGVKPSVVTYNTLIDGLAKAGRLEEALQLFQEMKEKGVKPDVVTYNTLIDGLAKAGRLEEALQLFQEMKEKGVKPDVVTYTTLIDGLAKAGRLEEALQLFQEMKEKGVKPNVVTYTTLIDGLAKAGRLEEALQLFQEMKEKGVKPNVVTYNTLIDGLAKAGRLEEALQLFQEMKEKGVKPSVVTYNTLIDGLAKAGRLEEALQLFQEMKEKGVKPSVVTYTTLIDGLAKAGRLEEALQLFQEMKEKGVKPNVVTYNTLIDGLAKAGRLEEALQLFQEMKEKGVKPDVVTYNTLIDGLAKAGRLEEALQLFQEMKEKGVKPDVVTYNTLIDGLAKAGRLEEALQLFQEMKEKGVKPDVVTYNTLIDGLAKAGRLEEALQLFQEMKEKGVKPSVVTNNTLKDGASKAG
As to the kind of experiment: MST; Results value; Fig S4D legend gives 9.7 nM; SPR: 30 mM Tris pH 7.6, 40 mM KCl, 5 mM MgCl2, 0.5 mM DTT, 0.25 mM EDTA, 0.01% P20, 20 C; ensemble FRET and MST: 100 mM Tris-HCl pH 8.0, 100 mM KCl; smFRET buffer not in material. Particulars: protein: recombinant; tags: Trx-His6-TEV (pETM20) cleaved; GAM remnant; label: 5' 6-FAM (FITC in Results).

Data set [2] addresses T1, dPPR10. In words: MST; Fig S4D legend value, conflicts with 4 nM in text; legend says labelled dPPR10; SPR: 30 mM Tris pH 7.6, 40 mM KCl, 5 mM MgCl2, 0.5 mM DTT, 0.25 mM EDTA, 0.01% P20, 20 C; ensemble FRET and MST: 100 mM Tris-HCl pH 8.0, 100 mM KCl; smFRET buffer not in material. Particulars: protein: recombinant; tags: Trx-His6-TEV (pETM20) cleaved; GAM remnant; label: 5' 6-FAM (FITC in Results).

Data set [3] deals with T1, dPPR10. In words: MST; SPR: 30 mM Tris pH 7.6, 40 mM KCl, 5 mM MgCl2, 0.5 mM DTT, 0.25 mM EDTA, 0.01% P20, 20 C; ensemble FRET and MST: 100 mM Tris-HCl pH 8.0, 100 mM KCl; smFRET buffer not in material. The note with it: protein: recombinant; tags: Trx-His6-TEV (pETM20) cleaved; GAM remnant; label: 5' 6-FAM.
For data set [4], the target named is T2, dPPR10-C2 (synthetic construct (designed consensus …, Q96C;Q376C)).
T2 chain: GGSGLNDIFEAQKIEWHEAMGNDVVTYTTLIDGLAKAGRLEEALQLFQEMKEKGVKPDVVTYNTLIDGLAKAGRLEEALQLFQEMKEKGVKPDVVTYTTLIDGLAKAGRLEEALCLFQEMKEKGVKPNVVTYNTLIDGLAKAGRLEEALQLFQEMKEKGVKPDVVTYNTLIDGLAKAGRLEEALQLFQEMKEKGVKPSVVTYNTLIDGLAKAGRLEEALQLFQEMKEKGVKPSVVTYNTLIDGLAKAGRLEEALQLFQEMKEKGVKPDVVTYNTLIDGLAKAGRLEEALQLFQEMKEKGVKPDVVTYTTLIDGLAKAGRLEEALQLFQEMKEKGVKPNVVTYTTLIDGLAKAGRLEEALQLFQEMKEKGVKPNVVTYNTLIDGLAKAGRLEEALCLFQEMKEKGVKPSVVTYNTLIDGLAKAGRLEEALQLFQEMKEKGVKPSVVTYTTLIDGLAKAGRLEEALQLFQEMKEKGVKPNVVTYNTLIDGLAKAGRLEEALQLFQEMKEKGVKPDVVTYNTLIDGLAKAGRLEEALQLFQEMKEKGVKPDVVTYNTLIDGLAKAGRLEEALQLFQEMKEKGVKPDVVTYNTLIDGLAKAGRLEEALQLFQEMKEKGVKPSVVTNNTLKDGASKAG
As to the kind of experiment: smFRET; 1 uM RNA; mean binding time 43.4 s; SPR: 30 mM Tris pH 7.6, 40 mM KCl, 5 mM MgCl2, 0.5 mM DTT, 0.25 mM EDTA, 0.01% P20, 20 C; ensemble FRET and MST: 100 mM Tris-HCl pH 8.0, 100 mM KCl; smFRET buffer not in material. Particulars: protein: recombinant; tags: N-terminal Avi-tag, biotinylated; Cy3/AF647 maleimide on Cys for FRET; 3' extension, predicted secondary structure.

In data set [5] the target is T2, dPPR10-C2. In words: smFRET; 1 uM RNA; mean binding time 41.3 s vs 10.6 s cognate; SPR: 30 mM Tris pH 7.6, 40 mM KCl, 5 mM MgCl2, 0.5 mM DTT, 0.25 mM EDTA, 0.01% P20, 20 C; ensemble FRET and MST: 100 mM Tris-HCl pH 8.0, 100 mM KCl; smFRET buffer not in material. The note with it: protein: recombinant; tags: N-terminal Avi-tag, biotinylated; Cy3/AF647 maleimide on Cys for FRET; 5' extension, predicted secondary structure.

Data set [6] concerns the target T2, dPPR10-C2. In words: smFRET; 1 uM RNA; SPR: 30 mM Tris pH 7.6, 40 mM KCl, 5 mM MgCl2, 0.5 mM DTT, 0.25 mM EDTA, 0.01% P20, 20 C; ensemble FRET and MST: 100 mM Tris-HCl pH 8.0, 100 mM KCl; smFRET buffer not in material. Particulars: protein: recombinant; tags: N-terminal Avi-tag, biotinylated; Cy3/AF647 maleimide on Cys for FRET.
In data set [7] the target is T2, dPPR10-C2. As to the kind of experiment: competition; 100-fold excess over RNAcognate; smFRET; SPR: 30 mM Tris pH 7.6, 40 mM KCl, 5 mM MgCl2, 0.5 mM DTT, 0.25 mM EDTA, 0.01% P20, 20 C; ensemble FRET and MST: 100 mM Tris-HCl pH 8.0, 100 mM KCl; smFRET buffer not in material. Particulars: protein: recombinant; tags: N-terminal Avi-tag, biotinylated; Cy3/AF647 maleimide on Cys for FRET.

Data set [8] concerns the target T2, dPPR10-C2. In words: ensemble FRET; SPR: 30 mM Tris pH 7.6, 40 mM KCl, 5 mM MgCl2, 0.5 mM DTT, 0.25 mM EDTA, 0.01% P20, 20 C; ensemble FRET and MST: 100 mM Tris-HCl pH 8.0, 100 mM KCl; smFRET buffer not in material. The note with it: protein: recombinant; tags: N-terminal Avi-tag, biotinylated; Cy3/AF647 maleimide on Cys for FRET.
Data set [9] concerns the target T2, dPPR10-C2. As to the kind of experiment: smFRET; 1 uM RNA; mean binding time 30.0 s; SPR: 30 mM Tris pH 7.6, 40 mM KCl, 5 mM MgCl2, 0.5 mM DTT, 0.25 mM EDTA, 0.01% P20, 20 C; ensemble FRET and MST: 100 mM Tris-HCl pH 8.0, 100 mM KCl; smFRET buffer not in material. The note with it: protein: recombinant; tags: N-terminal Avi-tag, biotinylated; Cy3/AF647 maleimide on Cys for FRET; no predicted secondary structure.

Data set [10] has as its target T2, dPPR10-C2. As to the kind of experiment: smFRET; 1 uM RNA; rare transitions; SPR: 30 mM Tris pH 7.6, 40 mM KCl, 5 mM MgCl2, 0.5 mM DTT, 0.25 mM EDTA, 0.01% P20, 20 C; ensemble FRET and MST: 100 mM Tris-HCl pH 8.0, 100 mM KCl; smFRET buffer not in material. Particulars: protein: recombinant; tags: N-terminal Avi-tag, biotinylated; Cy3/AF647 maleimide on Cys for FRET.

Usually Kd stands for the equilibrium constant for the complex coming apart. On to UGUAUCCUUAACCAUUUCU (ssRNA) [RNAcognate 5'-FAM], for which the results for the dissociation constant (Kd) with dPPR10 [1] and in the data set with dPPR10 [2] were 4 nM and 9.7 ± 1.8 nM, respectively.

Consider UCACAGGAACCGGCAAAGU (ssRNA) [RNAanti-cognate 5'-FAM], for which the binding result with dPPR10 [3] is “no binding”.

Turning to UGUAUCCUUAACCAUUUCUCACAGGAACCGGCAAAG (ssRNA) [RNA3'-OH], the binding result with dPPR10-C2 [4] is “binds”.

On to CACAGGAACCGGCAAAGUGUAUCCUUAACCAUUUCU (ssRNA) [RNA5'-OH], for which, in the data set with dPPR10-C2 [5], the binding result is “binds”.

CCAUUUCU (ssRNA) [RNA12-19]: the binding result in the data set with dPPR10-C2 [6] is on record as “no binding”.

For UGUAUCCUUAAC (ssRNA) [RNA1-12], the binding result in the data set with dPPR10-C2 [6] is given as “binds”.

With UCACAGGAACCGGCAAAGU (ssRNA) [RNAanti-cognate], the binding result with dPPR10-C2 [7] was “no binding”.

UGUAUCCUUAACCAUUUCU (ssRNA) [RNAcognate]: in the data set with dPPR10-C2 [8], the Kd came out at 1.2 ± 0.2 nM.

As for UGUAUCCUUA (ssRNA) [RNA1-10], the binding result with dPPR10-C2 [6] was “no binding”.

B1: RNAdual-OH (delta2) (ssRNA)
RNA: CAUUCCAACCCCCAAAGUGUAUCCUUAACCAUUUCUCUCACCAACCCCCAAAG
In the case of B1, the binding result with dPPR10-C2 [9] is given as “binds”.

As to UGUAUCCUAUACCAUUUCU (ssRNA) [RNA U9A,A10U], the binding result with dPPR10-C2 [10] is recorded as “no binding”.

The values above are taken from PMC11662938, “Single-molecule visualization of sequence-specific RNA binding by a designer PPR protein”.
